The labels stand for the following.
B1: Zinc finger homeobox protein 4, residues 2183 to 2238; numbered along this chain, Q86UP3 (parent)
chain: SSRTRFTDYQLRVLQDFFDTNAYPKDDEIEQLSTVLNLPTRVIVVWFQNARQKARK

This passage reports abundance fitness results from the Human Domainome abundance scans (Beltran et al. 2025).

± gives the uncertainty stated by the source.

Variants of B1 are the subject of this series. The series can be described thus: abundance fitness (aPCA) (normalised: wild type 0, dead -1); higher = more abundant; growth selection in yeast, the domain comes from the species named. The note with it: Homo sapiens.
On to SSRTRFTDYQLRVLQDFFDTNAYPKDDEIEQLSTVLNLPTRVIVPWFQNARQKARK [V45P], for which the abundance fitness is -0.245 ± 0.2.

Regarding SSRTRFTDYQLRVLQDFFDTNAYPKDDEIEQLSTVLNLPTRVIVVWNQNARQKARK [F47N], the abundance fitness is -0.778 ± 0.41.

Consider SSRTRFTDYQLRVLQDFFDTNAYPKDDEIEQLSTVLNLPTRVIVVWCQNARQKARK [F47C], for which the abundance fitness is -0.471 ± 0.18.

SSRTRFTDYQLRVLQDFFDTNAYPKDDEIEQLSTVLNLPTRVIVVWQQNARQKARK [F47Q]: the abundance fitness was -0.829 ± 0.22.

Regarding SSRTRFTDYQLRVLQDFFDTNAYPKDDEIEQLSTVLNLPTRVIVVWDQNARQKARK [F47D], the abundance fitness is -0.4 ± 0.24.

As for SSRTRFTDYQLRVLQDFFDTNAYPKDDEIEQLSTVLNLPTRVIVVWEQNARQKARK [F47E], the abundance fitness is -0.967 ± 0.16.

With SSRTRFTDYQLRVLQDFFDTNAYPKDDEIEQLSTVLNLPTRVIVVWHQNARQKARK [F47H], the abundance fitness was -0.6 ± 0.47.

SSRTRFTDYQLRVLQDFFDTNAYPKDDEIEQLSTVLNLPTRVIVVWSQNARQKARK [F47S]: the abundance fitness was -0.507 ± 0.12.

SSRTRFTDYQLRVLQDFFDTNAYPKDDEIEQLSTVLNLPTRVIVVWGQNARQKARK [F47G]: the abundance fitness is -0.342 ± 0.09.

As to SSRTRFTDYQLRVLQDFFDTNAYPKDDEIEQLSTVLNLPTRVIVVWVQNARQKARK [F47V], the abundance fitness is -0.264 ± 0.11.

Regarding SSRTRFTDYQLRVLQDFFDTNAYPKDDEIEQLSTVLNLPTRVIVVWPQNARQKARK [F47P], the abundance fitness is -1.06 ± 0.32.

With SSRTRFTDYQLRVLQDFFDTNAYPKDDEIEQLSTVLNLPTRVIVVWAQNARQKARK [F47A], the abundance fitness was -0.406 ± 0.12.

Turning to SSRTRFTDYQLRVLQDFFDTNAYPKDDEIEQLSTVLNLPTRVIVVWMQNARQKARK [F47M], the abundance fitness is -0.334 ± 0.15.

Consider SSRTRFTDYQLRVLQDFFDTNAYPKDDEIEQLSTVLNLPTRVIVVWTQNARQKARK [F47T], for which the abundance fitness was -0.893 ± 0.29.

Take SSRTRFTDYQLRVLQDFFDTNAYPKDDEIEQLSTVLNLPTRVIVVWWQNARQKARK [F47W]: the abundance fitness is -0.452 ± 0.14.

Turning to SSRTRFTDYQLRVLQDFFDTNAYPKDDEIEQLSTVLNLPTRVIVVWYQNARQKARK [F47Y], the abundance fitness was -0.207 ± 0.28.

In the case of SSRTRFTDYQLRVLQDFFDTNAYPKDDEIEQLSTVLNLPTRVIVVWRQNARQKARK [F47R], the abundance fitness was -0.801 ± 0.12.

Regarding SSRTRFTDYQLRVLQDFFDTNAYPKDDEIEQLSTVLNLPTRVIVVWIQNARQKARK [F47I], the abundance fitness amounted to 0.044 ± 0.4.

Turning to SSRTRFTDYQLRVLQDFFDTNAYPKDDEIEQLSTVLNLPTRVIVVWKQNARQKARK [F47K], the abundance fitness was -0.694 ± 0.2.

Take SSRTRFTDYQLRVLQDFFDTNAYPKDDEIEQLSTVLNLPTRVIVVWLQNARQKARK [F47L]: the abundance fitness is -0.016 ± 0.092.

In the case of SSRTRFTDYQLRVLQDFFDTNAYPKDDEIEQLSTVLNLPTRVIMVWFQNARQKARK [V44M], the abundance fitness was -0.136 ± 0.1.

For SSRTRFTDYQLRVLQDFFDTNAYPKDDEIEQLSTVLNLPTRVIYVWFQNARQKARK [V44Y], the abundance fitness is -0.223 ± 0.093.

On to SSRTRFTDYQLRVLQDFFDTNAYPKDDEIEQLSTVLNLPTRVIWVWFQNARQKARK [V44W], for which the abundance fitness was -0.253 ± 0.12.

Regarding SSRTRFTDYQLRVLQDFFDTNAYPKDDEIEQLSTVLNLPTRVINVWFQNARQKARK [V44N], the abundance fitness amounted to 0.002 ± 0.082.

With SSRTRFTDYQLRVLQDFFDTNAYPKDDEIEQLSTVLNLPTRVIRVWFQNARQKARK [V44R], the abundance fitness was -0.099 ± 0.081.

Turning to SSRTRFTDYQLRVLQDFFDTNAYPKDDEIEQLSTVLNLPTRVILVWFQNARQKARK [V44L], the abundance fitness was 0.042 ± 0.068.

Turning to SSRTRFTDYQLRVLQDFFDTNAYPKDDEIEQLSTVLNLPTRVISVWFQNARQKARK [V44S], the abundance fitness was determined as 0.008 ± 0.07.

On to SSRTRFTDYQLRVLQDFFDTNAYPKDDEIEQLSTVLNLPTRVITVWFQNARQKARK [V44T], for which the abundance fitness was -0.094 ± 0.07.

On to SSRTRFTDYQLRVLQDFFDTNAYPKDDEIEQLSTVLNLPTRVIPVWFQNARQKARK [V44P], for which the abundance fitness is -0.356 ± 0.075.

SSRTRFTDYQLRVLQDFFDTNAYPKDDEIEQLSTVLNLPTRVIQVWFQNARQKARK [V44Q]: the abundance fitness was -0.052 ± 0.089.

Regarding SSRTRFTDYQLRVLQDFFDTNAYPKDDEIEQLSTVLNLPTRVIVVWFQWARQKARK [N49W], the abundance fitness was -0.352 ± 0.12.

Regarding SSRTRFTDYQLRVLQDFFDTNAYPKDDEIEQLSTVLNLPTRVIVVWFQCARQKARK [N49C], the abundance fitness is -0.252 ± 0.14.

For SSRTRFTDYQLRVLQDFFDTNAYPKDDEIEQLSTVLNLPTRVIVVWFQDARQKARK [N49D], the abundance fitness came out at 0.108 ± 0.17.

For the variant SSRTRFTDYQLRVLQDFFDTNAYPKDDEIEQLSTVLNLPTRVIVVWFQTARQKARK [N49T], the abundance fitness is 0.073 ± 0.14.

In the case of SSRTRFTDYQLRVLQDFFDTNAYPKDDEIEQLSTVLNLPTRVIVVWFQEARQKARK [N49E], the abundance fitness stood at 0.032 ± 0.15.

In the case of SSRTRFTDYQLRVLQDFFDTNAYPKDDEIEQLSTVLNLPTRVIVVWFQKARQKARK [N49K], the abundance fitness is -0.153 ± 0.18.

As for SSRTRFTDYQLRVLQDFFDTNAYPKDDEIEQLSTVLNLPTRVIVVWFQFARQKARK [N49F], the abundance fitness was found to be 0.005 ± 0.27.

For the variant SSRTRFTDYQLRVLQDFFDTNAYPKDDEIEQLSTVLNLPTRVIVVWFQAARQKARK [N49A], the abundance fitness was -0.418 ± 0.12.

SSRTRFTDYQLRVLQDFFDTNAYPKDDEIEQLSTVLNLPTRVIVVWFQYARQKARK [N49Y]: the abundance fitness is -0.246 ± 0.19.

As for SSRTRFTDYQLRVLQDFFDTNAYPKDDEIEQLSTVLNLPTRVIVVWFQVARQKARK [N49V], the abundance fitness is -0.261 ± 0.11.

Turning to SSRTRFTDYQLRVLQDFFDTNAYPKDDEIEQLSTVLNLPTRVIVVWFQIARQKARK [N49I], the abundance fitness was -0.127 ± 0.16.

Regarding SSRTRFTDYQLRVLQDFFDTNAYPKDDEIEQLSTVLNLPTRVIVVWFQPARQKARK [N49P], the abundance fitness was -0.862 ± 0.22.

On to SSRTRFTDYQLRVLQDFFDTNAYPKDDEIEQLSTVLNLPTRVIVVWFQHARQKARK [N49H], for which the abundance fitness is -0.077 ± 0.14.

As for SSRTRFTDYQLRVLQDFFDTNAYPKDDEIEQLSTVLNLPTRVIVVWFQGARQKARK [N49G], the abundance fitness was -0.011 ± 0.084.

In the case of SSRTRFTDYQLRVLQDFFDTNAYPKDDEIEQLSTVLNLPTRVIVVWFQMARQKARK [N49M], the abundance fitness is -0.168 ± 0.14.

For the variant SSRTRFTDYQLRVLQDFFDTNAYPKDDEIEQLSTVLNLPTRVIVVWFQQARQKARK [N49Q], the abundance fitness is -0.355 ± 0.19.

On to SSRTRFTDYQLRVLQDFFDTNAYPKDDEIEQLSTVLNLPTRVIVVWFQLARQKARK [N49L], for which the abundance fitness is -0.17 ± 0.1.
